Test results taken from the DeepSol protein solubility set.

Experiment: soluble on expression in E. coli; label from the status in PepcDB or PDB records

Sequence	soluble on expression in E. coli
MDKIPDIMAKIKTMAPAIRSIDTRTVKVAPKVADAELQSAEYRQWRNAVYRRAGYRCEAIDNGRRCTKAAPAHRLFADHIVERRDGGALLDAANGQCLCGSHHTRKTVAARAARLSSRSRGGGSNLLEHHHHHH	soluble
MTMRNFDLSPLMRQWIGFDKLANALQNAGESQSFPPYNIEKSDDNHYRITLALAGFRQEDLEIQLEGTRLSVKGTPEQPKEEKKWLHQGLMNQPFSLSFTLAENMEVSGATFVNGLLHIDLIRNEPEPIAAQRIAISERPALNS	not soluble
MSLKLIKGLNLLRPCSDTPFLENAFVVIDGDEFLSVGTTEPEGEFEEVLDCGGKFALPGLINAHHHLYSALAVGMPPPAKTPLNFTQILEEVWWKLDLALDHDATQASFESGLIDSLKAGTTTVIDHHCSPSFIEGSLSLLGDTGKKLGIATGLAFEVTDRNGQELFERSLQENLDAAEKHSQDQELAALLGLHASFTLSEESLKKVAEVHSKRSNWGIHTHLSEDRADEEDARNRGHASVVERLDHFGLINQSAMLIHGVHSLESDAELIQKHKAHLVHNPTSNANNRIGMLSNQAAERMKPGLGTDGMQSNMIREAKEGMLIRSSHMSAGDAGVDYQAILFDHNPRIASAVFGRSIGRVEPGYRADLAIYDYHPRTEVHSDNVFGHVFFGLGEPCDVMSGGLMRVQNHLLQGNDEQAAKQEAAEQSRKLWQKMQEGHHHHHH	soluble
MNTNERIVPLLPLRGVLVYPTMVLHLDVGRDKSIQALEQAAMDENIIFLAMQKEMNIDDPKEDDIYSVGTVAKVKQMLKLPNGTLRVLVEGLHRAEVVEFIEEENVVQVSIKTVTEEVEADLEEKALMRTLLEHFEQYIKVSKKVSNETFATVADVEEPGRLVDLIASHLPIKTKQKQEILEIISVKERLHTLISIIQDEQELLSLEKKIGQKVKRSMERTQKEYFLREQMKAIQTELGDKEGKGGEVEELREKIEQSGMPEETMKAALKELDRYEKLPASSAESGVIRNYMDWLLALPWTDATEDMIDLAHSEEILNKDHYGLEKVKERVLEYLAVQKLTNSLKGPILCLVGPPGVGKTSLARSIATSLNRNFVRVSLGGVRDESEIRGHRRTYVGAMPGRIIQGMKKAKSVNPVFLLDEIDKMSNDFRGDPSAALLEVLDPEQNHNFSDHYIEEPYDLSKVMFVATANTLSSIPGPLLDRMEIISIAGYTELEKVHIAREHLLPKQLQEHGLRKGNLQVRDEALLEIIRYYTREAGVRTLERQIAKVCRKVAKIIVTAERKRIVVTEKNVVDLLGKHIFRYGQAEKTDQVGMATGLAYTAAGGDTLAIEVSVAPGKGKLILTGKLGDVMKESAQAAFSYIRSRAEELQIDPNFHEKNDIHIHVPEGAVPKDGPSAGITMATALISALTGIPVSKEVGMTGEITLRGRVLPIGGLKEKTLSAHRAGLTKIILPAENEKDLDDIPESVKENLTFVLASHLDEVLEHALVGVKQ	not soluble
MIRRLPMTDSRGMNSDKYGIPNIHIRTTPGPDMDKQTKQTNDSGFNSYSRKYHIPRLWYEPARGIYCSDSVSYSWFIQFLQGGIVHVLCRTSLLSISRILRKRGQKVYFGLRKRHEKLVGFASGHGLCLPGPFQHDPIAPVLLPRFPFVRQGRLVRSVLHTGLFE	not soluble
MAVDWPRGGLMPRLRRLEDLLPHIREGRYRLGPHAAKHMLQEGFREQDILSALLWGRELAIYPEDERMLVLGYMVFPPRLRLPLHVVLEYSTPRHVDIVTAFIPREPYRVYSRARLAALLRFDGALEEVRWTGPKHLYPPWD	soluble
AHKKIFLVEDNKADIRLIQEALANSTVPHEVVTVRDGMEAMAYLRQEGEYANASRPDLILLDLNLPKKDGREVLAEIKSDPTLKRIPVVVLSTSINEDDIFHSYDLHVNCYITKSANLSQLFQIVKGIEEFWLSTATLPS	soluble
MSLDNKRRFALVGTGNRGTTMWGRDLLAGWRGLVDLVAIADTNALRAERARTMIATNAPVYGNVDAMLAETRPDLVIVCTPDDTHDDIVVRALESGADVITEKPMSTTVEKIRRILDAEKRTGRRVDVSFNYRFAPTAARIKELLNAGEIGRVTSVDFHWYLDTRHGADYFRRWHAYAEHSGSLFVHKATHHFDLLNWYLDSDPEAVSAFADLQMYGRRGPFRGPRCKLCPHKSECDFYLDLEADPFLDSLYEEPSEIDSYFRDGCVFREDIDIPDTMVANIRYRNDVHVSYSLNTFQPIEGHHIAFNGTKGRIELRQYEDQPWETPPEDEILLVRNFPKGKPAMERITVPHFPGGHYGGDDRLRNTLFEPDAKDPLGQRAGARAGAMSVLCGIAALQSSRTGKIVRLADLMPELFTDGAQPMRERLKETCSREGHHHHHH	soluble
MSSVERYLSQLVKTEPQLETLKELYIGKKWHQLTEELLKLIHSGQVNRINLVELYDSFIREFESSLNPLALVRILVGIARKNYRDLNKALEFVDYATNSKAFISADEEASLFLKSETARLKLEGGNLSGVKQILEEVGVAMESTRDLDTVVHSSYHRVCAQYYKAVGPATKYYSSALLFFQYAPLDSFTVEERVHWAYDLGVASIVAETIFNFGEILEYDIMQSLKSEKLQWLLELLEAFKYGSIEKFNQIGNRARDQINQEPALSSNWQFLEQKIRLRSLMELATKKLVERVISFDDICSSCEVTKDQVEYLVMKALSLHLLQGTINEMDETVSISYVQPKTLDRNEVEGLYNRLIPWKTHVHEIALSLERSTEADLAQAQN	soluble
LNIHVTIREATEGDLEQMVHMLADDVLGRKRERYEKPLPVSYVRAFKEIKKDKNNELIVACNGEEIVGMLQVTFTPYLTYQGSWRATIEGVRTHSAARGQGIGSQLVCWAIERAKERGCHLIQLTTDKQRPDALRFYEQLGFKASHEGLKMHF	soluble
MGSDKIHHHHHHMDIIREITPLSEKDCFYIVDRRKTEFTYPIHCHSEYELNFIEHAPGVRRVVGDSAEVIGEYELVLITGKELEHVWEQNACKSPLIHEITIQFSPDLFGKNLLEKNQFNSIRKMLEKAQCGISFPMSSILKVYHLLEKLVSEEQSFYAVINFLTILYELSVEENYKVLASSSFAKITDIHSESRRIQKVQNYINERYQQDIRLNQLAELVGMAPSAFSRFFKLRTGKTLSDYITDIRIGYAARMLVDTQRSIAEICYDCGFNNLSNFNRIFKKKKNCSPKEFRDNYKKTKIIV	not soluble
MSLKTTPLPILDLLEAYRPLFVEALGNRSRKERSKKERYIAKITAPCIDACPAHVDIPAYIEGVRDHLLGDSLAATRKSMPLAQVCGRVCPHPCESACRRGDLDEPISIMELKRLGADYEKERHGGFIHPYPPKPRRKDKRVAIIGAGPAGLSSAYYLALEGIMSDVFEALPVLGGEVSVGVPEYRMPIDRYYHDIEAIKSLGVSFWTNHFVSAKELDEMRQKYDAIILATGARISKKLGVKGEEESLGGYAPAIPWLDQINLATKFNLAALPDLRGKSVVCVGGGFTSMDVVRCAVRLGAKRIVMLYRRDEATLIQNTSKEEYHEALEEGVEFLFQCAVQEIKSCGGEIKALLVEEYEVVYEEGARKPSLRRIEREPLFLECDLLIPAVSQEVDRSFIPKEWNLESTSWGSFKTNGKDFSTTLRGVFAAGDCEKGPLTIVNAVGQGKRAASVVSRFLEDGEEGHHHHHH	soluble
MGSDKIHHHHHHMLIVREFSNRFQQMSGMPINSNETKERLKAAGIDINSKQYRAVMSEMSRDGGGGYTTISAIKKRMSRYDKDGDWINPRTGLAGLLVTDKNCASKNRIVSISESIMDEMFESTKKEFFMENGVHNGDTTNRSEIYQKLYQQTEKNDRLAAGYTLEEYERQYWQAFTDAVKVADPKWEAGKPIMPGVLDRITSKSIDALLVKSGSQLIRKSFERMI	not soluble
INKVPVTVFLWRPEKYWPADFVSENVKNFGYTVEEFTSGKVLYGNIVHPDDFERVERELSRRIEEDYVDFSQEYRILTKSGEARWVEERTFIEADENGVVKYLKGIILDIT	not soluble
MRIALIFLVLLVSFASSCKNFDKYMNMFCRYGLEQSPCTVEDYSTYKSACCAMKNNCSYKEFPKDDVCCFTVECLKRCFPEKLLKNDKVY	not soluble
MGSDKIHHHHHHMNTLASIQELARAIRNMIRTGIVVETDLDAGRCRVQTGGIYTDWLQWLTHRAGRSRTWWAPSIGEQVMILAVGGELDTAFVLPGIYSDDNPAPSASADAWHVEFPDGAVMSYEPETGALTVTGIKTADVTASDSVAVSVPVVLVKAETRVTLDTPEVVCTNKLTTGTLEVKQGGKMSGDIEHSGGAFTSNGVQVDKHGHGGIRRGDEWTEGTQ	not soluble
MSEKLQKVLARAGHGSRREIESIIEAGRVSVDGKIAKLGDRVEVTPGLKIRIDGHLISVRESAEQICRVLAYYKPEGELCTRNDPEGRPTVFDRLPKLRGARWIAVGRLDVNTCGLLLFTTDGELANRLMHPSREVEREYAVRVFGQVDDAKLRDLSRGVQLEDGPAAFKTIKFSGGEGINQWYNVTLTEGRNREVRRLWEAVGVQVSRLIRVRYGDIPLPKGLPRGGWTELDLAQTNYLRELVELPPETSSKVAVEKDRRRMKANQIRRAVKRHSQVSGGRRSGGRNNNG	soluble
NGAQAFVSAQTSTIPKTAFTAHDFVDYTLPQEQKGKEQKEQQWMKNSQTKDTDVHPYADFAVLEILLFPDSSTDRKIFNHFIQPAIRAYKQLGDSLNIFANQTLDQPKHNRYYLLGYPFLRNKAASLFLNQTEQR	soluble
MSRPPSRPRMMCARVLLLLSVTGLVLACETGPSSGDYEQAVMQDRVQRDMQMREKESVLPPGRREAFRGLNFYEVDPAYRYTVPLRRFETPDTVMIPESTGDLRPQQRIGEVTVPLPEGPEELVVFRGEGDTPRGRLWIPFADSTNRHATYKGGRYVDLTSTDSDSVVVDFNRAYNPTCAYNPDFACPLPPPENRIAVPVAAGEKRPTFGG	soluble
MSLDRQLWRQFPQVEPQLTALQDYLLRTVQLDNQPIHHKILALLKSGGKLLRPGYFYLFSTFGNAATPAQLQAGAAAIEILHVGTLIHDDVIDDSPTRRGVRTIQMTYGQRNAIYAGDFMFTVYFDQVLKSTTDRSLIQNHIDAMHRILQGELHQMDLNYREDITLDAYLNEIAGKTAELFALSCYQGAQLAGAPQSVIDRTRDIGIAIGCAYQMLDDILDYAGDPKRTQKPVLEDLRSGVYSLPLLLSLSHAPRDFHKLLKKKQAMTLEDIKHVQALVAQYDGVGAAKQLAQDYTDRALTLIQQLPVGSAQQSLEQLTRLLLRRDHEGHHHHHH	soluble
MAHHHHHHMKLMLKKKKKGRKRKRSYYKEIESLFWTAEDYNFDKDKQYLENIDKNMLVKLFELICFYSLKDLHVYEEQALITSKMLDIIQIPEGRAFYGFQMCMENIHDEVYACIFETYIPDSKQKRVIINKVIELDSVLKKQKWLTEIFESNIPYYNKLVLLYISKVLFNGTLNILIGYCKENSILPCLCNVHEKIHRDEYLHGDFSVMCCNHLVNKLKYEHVLDYFKMAVDLEYQFSLEMLELNVLKIKKEQVRAFLEYLTDTMLTNLKYPKHYNSKYPFSWPEFTKIIVNENGKEETVKKGENVYGEKQILFDEDF	not soluble
MSLKYGIIGAGAMGYRYGVMLQENAGVDVDFIDTWGPNVAKVREQGGVDVARDHQNHHVVPINIYYPEEYQGHPDVWIVFKKQMQLADELKRDASLFHEDQYVFAAMNGMGHFEKIAQYFPENHIIGGTAMIATVLNGPGTVDFMGPKGSEAMHMSKYAGHIDTTTKQVMADFKAADLNPIWSDNFMGMCMSKVVFNAVTNSLCTMFEIQMGQFIEYPGVKDMATQMFNEAYDACERAGIKLIETRQEEIDSVETVSRAYKYHYPSMYQDFSKGRPTEVDYINGYIAKIGREHDYVCRVHEFVTHEVHLAEMMRQYRHPEIPVAEKEGHHHHHH	not soluble
